According to patent publication US20210230304A1 (SYSMEX, published 2021):

Experiments:
[1] = target: T1, HER2 protein (R&D Systems, Inc., Catalog No. 1129-ER) (UniProt P04626 23-652); assay: SPR, Biacore T200; antigen immobilised, antibody as analyte
T1 construct: Bought reagent
Protocol: (§1) The affinity of the prepared variants was measured using Biacore (registered trademark) T200 (GE Healthcare). […] Antigen was immobilized (immobilization: 50 RU) to a sensor chip for Biacore (registered trademark) Series S Sensor Chip CMS (GE Healthcare). The antibody solution was diluted to prepare antibody solutions of 30 nM, 15 nM, 7.5 nM, 3.75 nM and […]. The antibody solutions at each concentration were delivered to Biacore (registered trademark) T200 (GE Healthcare) (association time of 120 seconds and dissociation time of 1800 seconds). Measurement data was analyzed using Biacore (registered trademark) Evaluation software, and the data on the affinity of each antibody was obtained.
(§2) In the measurement, TSH protein (R&D Systems, Inc.) was used as an antigen of the anti-TSH antibody, and HER2 protein (R&D Systems, Inc., Catalog No. 1129-ER) was used as an antigen of the anti-HER2 antibody.

[2] = target: T1, HER2 protein (R&D Systems, Inc., …); assay: SPR, Biacore T200; reference is the wild-type anti-HER2 antibody
Protocol: as §1, §2

B1: 76, 77, 81 variant (Arg) of the humanized anti-HER2 antibody (antibody, V domains shown)
VH: not shown
VL: DIQMTQSPSSLSASVGDRVTITCRASQDVNTAVAWYQQKPGKAPKLLIYSASFLYSGVPSRFSGSRSGTDFTLTIRRLQPRDFATYYCQQHYTTPPTFGQGTKVEIKR
For B1, the Kd [1] was 0.0219 nM and the “Ratio (Kd against wild-type = 1)” value [2] was 2.71.
